Assay [1] has as its target T1, AT4 receptor (Bos taurus, UniProt F1N1Q8).
T1 sequence (F1N1Q8 1-1022): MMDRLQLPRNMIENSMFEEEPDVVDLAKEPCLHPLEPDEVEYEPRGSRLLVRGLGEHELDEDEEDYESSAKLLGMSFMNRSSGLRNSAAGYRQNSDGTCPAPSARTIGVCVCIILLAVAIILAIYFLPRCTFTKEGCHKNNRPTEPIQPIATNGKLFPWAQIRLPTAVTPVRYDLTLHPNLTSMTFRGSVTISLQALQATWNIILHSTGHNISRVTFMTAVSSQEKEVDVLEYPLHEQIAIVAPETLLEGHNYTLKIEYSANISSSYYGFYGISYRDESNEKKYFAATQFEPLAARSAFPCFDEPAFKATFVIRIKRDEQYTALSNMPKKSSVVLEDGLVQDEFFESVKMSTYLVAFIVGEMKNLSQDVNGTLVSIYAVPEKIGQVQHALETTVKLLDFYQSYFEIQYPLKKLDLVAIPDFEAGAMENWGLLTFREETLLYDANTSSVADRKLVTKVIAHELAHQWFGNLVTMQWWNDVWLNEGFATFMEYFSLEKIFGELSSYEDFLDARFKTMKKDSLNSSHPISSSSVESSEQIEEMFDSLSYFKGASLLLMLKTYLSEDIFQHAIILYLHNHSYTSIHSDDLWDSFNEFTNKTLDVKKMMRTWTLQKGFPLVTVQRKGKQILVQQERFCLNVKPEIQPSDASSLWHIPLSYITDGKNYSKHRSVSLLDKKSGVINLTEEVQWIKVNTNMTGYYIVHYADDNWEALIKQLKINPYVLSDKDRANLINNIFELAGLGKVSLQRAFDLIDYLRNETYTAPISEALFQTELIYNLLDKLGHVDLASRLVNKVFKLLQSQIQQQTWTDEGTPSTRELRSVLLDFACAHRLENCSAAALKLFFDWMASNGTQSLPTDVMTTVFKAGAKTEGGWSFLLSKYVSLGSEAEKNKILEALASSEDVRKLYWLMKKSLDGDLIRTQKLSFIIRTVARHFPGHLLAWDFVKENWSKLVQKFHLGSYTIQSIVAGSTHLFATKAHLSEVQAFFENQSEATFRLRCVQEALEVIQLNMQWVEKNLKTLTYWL
Nature of the assay: 125I-AIV binding and competition, coronary venular endothelial cell (CVEC) membranes. The arrangement: species or system bovine. The conditions noted are these: competition of 0.5 nM 125I-AIV; read-out: Ki.

The target of assay [2] is T2, AT4 receptor (Cavia porcellus, UniProt H0VNM7).
T2 sequence (H0VNM7 1-1025): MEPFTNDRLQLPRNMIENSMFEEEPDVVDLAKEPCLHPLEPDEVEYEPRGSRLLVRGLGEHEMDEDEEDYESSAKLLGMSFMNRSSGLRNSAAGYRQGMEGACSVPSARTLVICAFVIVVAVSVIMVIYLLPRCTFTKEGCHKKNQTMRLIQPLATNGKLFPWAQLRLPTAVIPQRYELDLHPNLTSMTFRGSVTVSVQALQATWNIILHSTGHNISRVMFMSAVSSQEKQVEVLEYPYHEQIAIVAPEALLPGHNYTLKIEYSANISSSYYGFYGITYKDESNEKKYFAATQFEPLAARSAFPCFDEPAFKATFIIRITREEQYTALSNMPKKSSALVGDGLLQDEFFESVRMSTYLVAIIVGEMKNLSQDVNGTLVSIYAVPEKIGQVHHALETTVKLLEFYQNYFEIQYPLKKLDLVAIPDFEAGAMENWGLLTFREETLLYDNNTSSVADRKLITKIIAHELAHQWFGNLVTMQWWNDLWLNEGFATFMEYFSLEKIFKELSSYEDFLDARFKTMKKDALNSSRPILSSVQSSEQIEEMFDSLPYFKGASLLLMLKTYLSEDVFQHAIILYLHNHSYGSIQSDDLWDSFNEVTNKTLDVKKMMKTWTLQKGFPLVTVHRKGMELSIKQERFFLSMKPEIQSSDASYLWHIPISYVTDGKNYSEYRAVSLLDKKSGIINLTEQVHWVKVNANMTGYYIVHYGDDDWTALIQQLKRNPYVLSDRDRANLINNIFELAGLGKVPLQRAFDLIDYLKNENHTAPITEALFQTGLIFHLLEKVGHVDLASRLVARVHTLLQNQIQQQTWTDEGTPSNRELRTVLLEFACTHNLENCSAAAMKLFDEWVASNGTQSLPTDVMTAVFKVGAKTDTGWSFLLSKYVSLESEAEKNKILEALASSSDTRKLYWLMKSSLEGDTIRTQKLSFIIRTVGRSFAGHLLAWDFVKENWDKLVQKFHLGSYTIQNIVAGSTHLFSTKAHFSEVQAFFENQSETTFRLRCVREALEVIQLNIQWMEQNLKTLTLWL
As to the kind of experiment: 125I-AIV binding and competition, guinea pig hippocampus membranes. The settings on record: competition of 0.6 nM 125I-AIV.

Another assay has as its system rats. Nature of the assay: Passive avoidance conditioning after icv injection. It counts as in vivo, rat.

A value given as a limit tells only on which side of the number the result lay.

With “Asp1 Arg2 Val3 Tyr4 Ile5 His6 Pro7 Phe8 (DRVYIHPF) [AII]”, the Ki with AT4 receptor [1] was 194 ± 44.5 nM; in the assay with AT4 receptor [2], over 1000 nM. In addition, the “passive avoidance latency / cognitive effect (in words)” value in the assay on rats was “no specific effect”.

One may read the Ki as a dissociation constant, usually derived from enzyme kinetics or from competition with a known ligand.

Source of the values: patent US5854388A, “Angiotensin IV peptides and receptor” (Washington State University Research Foundation, priority 1994, dated 1998).
